Like-named read-outs stand apart in the source and are kept apart here.

Assay [1] deals with T1, CD38 on Daudi target cells (UniProt P28907 1-300, limits assumed). In words: cell-based or functional assay.
The target in assay [2] is T1, CD38 on Daudi target cells. In words: cell-based or functional assay. The source holds these as a separate data set.
Assay [3] addresses T2, His-tagged human CD38 (ACRO Biosystems cat #CD8-H5224) (human, UniProt P28907 43-300).
T2 construct: Bought His-tagged protein
In words: SPR (Carterra LSA), antibody captured by anti-human Fc, His-tagged CD38 injected; IgG by the head of Table 5.

The target in assay [4] is T3, His-tagged cynomolgus monkey CD38 (ACRO Biosystems cat # CD8-05223 [sic]) (cynomolgus monkey, UniProt Q5VAN0 43-301).
T3 construct: Bought His-tagged protein; also called cynomolgus CD38
The assay is described as above.

Assay [5] has as its target T2, His-tagged human CD38 (ACRO Biosystems …). In words: SPR (Carterra LSA), antibody captured by anti-human Fc, His-tagged CD38 injected.
Assay [6] addresses T3, His-tagged cynomolgus monkey CD38 (ACRO …). Described as above.
For assay [7], the target named is T4, His-tagged human CD38 (ACRO Biosystems CD8-H5224) (human, UniProt P28907 43-300).
T4 construct: bought protein; used for ELISA coating and as SPR analyte; not shown: His tag
In words: SPR, IgG. Background: In SPR one partner is held on a chip, and binding of the other changes the refractive index at the surface.

In assay [8] the target is T5, His-tagged cynomolgus monkey CD38 (ACRO Biosystems, CD8-05223 [sic]) (cynomolgus monkey, UniProt Q5VAN0 43-301).
T5 construct: bought protein; used for ELISA coating and as SPR analyte; not shown: His tag
In words: SPR, IgG.

Assay [9] addresses T6, His-tagged mouse CD38 (ACRO Biosystems CD8-M5223) (mouse, UniProt P56528 45-304).
T6 construct: bought protein; used for ELISA coating and as SPR analyte; also called Murine; not shown: His tag
T6 sequence (looked up): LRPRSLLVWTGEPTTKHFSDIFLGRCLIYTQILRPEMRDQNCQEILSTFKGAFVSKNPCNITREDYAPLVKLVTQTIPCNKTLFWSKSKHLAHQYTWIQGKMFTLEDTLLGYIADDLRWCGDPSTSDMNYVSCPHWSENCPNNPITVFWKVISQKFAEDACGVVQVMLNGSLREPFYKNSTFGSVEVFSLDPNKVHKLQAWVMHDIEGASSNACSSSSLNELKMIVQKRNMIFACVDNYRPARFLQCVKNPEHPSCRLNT
In words: SPR, IgG.

B1: 40769p2.2.A8 (antibody, V domains shown)
VH: EVQLLESGGGLVQPGGSLRLSCAASGFTFSDYWMNWVRQAPGKGLEWVSTISISGGIIYYADSVKGRFTISRDNSKNTLYLQMNSLRAEDTAVYYCAKDNWNDYYGMDVWGQGTTVTVSS
VL: QSVLTQPPSASGTPGQRVTISCSGSTSNIRDNYVYWYQQVPGTAPKLLIYKDDQRPSGVPDRFSGSKSGTSASLAISGLQSDDEADYYCATWDGSLNGRVFGGGTKLTVL
notes: Human V regions from transgenic chicken, cloned as scFv-Fc; The variable domains can be found in the listing by the CDRs
As a reminder, the Kd is the concentration at which binding is half-saturated. Consider B1, for which, in [1], the “Lowest Remaining Target %” value came to 56%, the “Max RLU” value was determined as 1.85e+06 RLU, the “PBMC ADCC EC50” value was found to be 0.273 ng/mL and the “Reporter cell ADCC EC50” value worked out at 9.82 ng/mL. For the same molecule, in assay [2], the “ADCC EC50” value is 9.82 ng/mL, the “Lowest Remaining Target %” value turned out to be 56%, the “Max RLU” value worked out at 1.85e+06 RLU and the “PBMC ADCC EC50” value was 0.273 ng/mL. This molecule also came in with a Kd in assay [3] of 2.58 nM. The dissociation constant (Kd) in [4] is 3.27 nM.

B2: 40769p1.1.H10 (antibody, V domains shown)
VH: EVQLLESGGGLVQPGGSLRLSCAAFGFTFSDYEMNWVRQAPGKGLEWVSSISITGSWTGYADSVKGRFTISRDNSKNTLYLQMNNLRAEDTAVYYCANYKSYYGMDVWGQGTTVTVSS
VL: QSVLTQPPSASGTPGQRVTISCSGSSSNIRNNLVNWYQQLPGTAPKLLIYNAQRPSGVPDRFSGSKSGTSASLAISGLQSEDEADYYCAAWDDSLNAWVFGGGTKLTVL
notes: as for B1
Regarding B2, in [5], binding was put at a Kd of 0.02 nM. Further, binding in [6] was put at a Kd of 3.08 nM. For the same molecule, in assay [2], the “ADCC EC50” value amounted to 20.7 ng/mL, the “Lowest Remaining Target %” value was 54%, the “Max RLU” value was 1.94e+06 RLU and the “PBMC ADCC EC50” value amounted to 0.411 ng/mL.

B3: 40769p2.1.C4 (antibody, V domains shown)
VH: EVQLLESGGGLVHPGGSLRLSCAASGFTFSDYEMNWVRQAPGKGLEWVSSISITGDFTYYADSVKGRFTISRDNSKNTLYLQMNNLRAEDTAVYYCANYKSYYGLDVWGQGTTVTVSS
VL: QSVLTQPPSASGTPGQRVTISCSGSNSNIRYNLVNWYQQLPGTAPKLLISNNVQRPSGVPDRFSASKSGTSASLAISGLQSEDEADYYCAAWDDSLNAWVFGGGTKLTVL
notes: as for B1
B3: in assay [1], the “Lowest Remaining Target %” value amounted to 63%, the “Max RLU” value was 1.44e+06 RLU, the “PBMC ADCC EC50” value turned out to be 0.227 ng/mL and the “Reporter cell ADCC EC50” value is ~12.2 ng/mL. Besides, in [2], the “ADCC EC50” value is ~12.2 ng/mL, the “Lowest Remaining Target %” value amounted to 63%, the “Max RLU” value worked out at 1.44e+06 RLU and the “PBMC ADCC EC50” value came out at 0.227 ng/mL. This molecule displayed a Kd in [3] of 1.46 nM. In addition, the Kd in assay [4] was determined as 1.12 nM.

B4: 40769p2.1.F2 (antibody, V domains shown)
VH: EVQLLESGGGLVQPGGSLRLSCVASGFTFTNYEMNWVRQAPGKGLEWVSSISITGNYIYYADSVKGRFTISRDNSKNTLYLQMNDLRAEDTAVYYCANYKSYHGMDVWGQGTTVTVSS
VL: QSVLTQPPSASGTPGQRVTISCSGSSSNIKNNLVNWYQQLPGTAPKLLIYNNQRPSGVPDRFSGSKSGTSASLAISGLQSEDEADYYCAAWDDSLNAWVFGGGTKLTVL
notes: as for B1
Regarding B4, in assay [1], the “Lowest Remaining Target %” value came to 57%, the “Max RLU” value was determined as 1.72e+06 RLU, the “PBMC ADCC EC50” value was determined as 0.293 ng/mL and the “Reporter cell ADCC EC50” value was 25.3 ng/mL. Besides, in [2], the “ADCC EC50” value stood at 25.3 ng/mL, the “Lowest Remaining Target %” value was determined as 57%, the “Max RLU” value amounted to 1.72e+06 RLU and the “PBMC ADCC EC50” value turned out to be 0.293 ng/mL. Besides, in assay [3], the Kd was determined as 3.3 nM. Besides, in [4], the Kd amounted to 7.05 nM.

B5: 40769p2.1.E1 IgG (antibody, V domains shown)
VH: EVQLLESGGGLIQPGGSLRLSCTASGFDFSSYGMHWVRQAPGKGLEWVAIISDSGGTTYYGDSVKGRFTISRDNSKSTLYLQMNSLRAEDTALYYCASYIMDVWGQGTTVTVSS
VL: QSVLTQPPSASGTPEQRVTISCSGSNSNVGDNAVYWYQQLPGTAPKLLFYGTNRRPSGVPDRFSGSKSGTSASLAISGLQSEDEADYYCAAWDDSLNAWVFGGGTKLTVL
notes: IgG
B5: the figures for the Kd in assay [7], in assay [8] and in assay [9] were 25.6 nM, 261 nM and 1170 nM, respectively.

B6: 40769p2.1.G4 IgG (antibody, V domains shown)
VH: EVQLLESGGGLVQPGGSLRLSCAASGFTFTSHDMNWVRQAPGKGLEWVSTITTGGNTYYADSVKGRFTISRDNSKNTLYLQMTSLRAEDTAVYYCTKHYSMDVWGQGTTVTVSS
VL: QSVLTQPPSASGTPGQRVTISCSGSTSNVVFNAVYWYQQLPGTAPKLLFYGKSQRPSGVPDRFSGSKSGTSASLAISGLQSEDEADYYCAAWDDTLNGWVFGGGTKLTVL
notes: IgG
B6: the dissociation constant Kd in assay [7] stood at 35.5 nM; in assay [8], 73.8 nM; in assay [9], 106 nM.

B7: 40769p2.2.A5 IgG (antibody, V domains shown)
VH: EVQLLESGGGLIQPGGSLRLSCTASGFDFSSYGMHWVRQAPGKGLEWVGIISDTGGTTYYGDSVKGRFTISRDNSKSTLYLQMNSLRAEDTALYYCASYIMDVWGQGTTVTVSS
VL: QSVLTQPPSASGTPGQRVTISCSGSNSNVGDNAVYWYQQLPGTAPKLLFYGTNRRPSGVPDRFSGSKSGTSASLAISGLQSEDEADYYCAAWDDSLNAWVFGGGTKLTVL
notes: IgG
As for B7, the Kd in [7] turned out to be 18.8 nM; in assay [8], 221 nM; in assay [9], 1160 nM.

B8: 40769p2.1.H12 IgG (antibody, V domains shown)
VH: EVQLLESGGGLIQPGGSLRLSCTASGFDFSSYGMHWVRQAPGKGLEWVGIISDSGGTTYYADSVKGRFTISRDNSKNTLYLQMNSLRAEDTALYYCASYIMDVWGQGITVTVSS
VL: QSVLTQPPSASGTPGQRVTISCSGSNSNVGVNSVYWYQQLPGTAPKLLIYGSGRRPSGVPDRFSVSKSGTSASLAISGLQSEDEADYYCAAWDDGLNAWVFGGGTKLTVL
notes: IgG
As for B8, the Kd in assay [7] turned out to be 160 nM; in assay [8], 316 nM; in assay [9] it was 21400 nM.

B9: 40769p2.2.C8 (antibody, V domains shown)
VH: EVQLLESGGGLVPPGGSLRLSCAASGFTFTNAWMSWVRQAPGKGLEWVSTIRSKTDGGTPYSADSVKGRFTISRDDSKNTLYLQMNSLRAEDTAVYYCAKYDYNYMDVWGQGTTVTVSS
VL: QSVLTQPPSASGTPGQRVTISCSGTTSNIGRNYVHWYQQFPGTAPKLLIYRNSQRPSGVPDRFSGSKSGTSASLAISGLQSEDEADYYCAAWDDSLNGWLFGGGTKLTVL
notes: as for B1
Turning to B9, in assay [1], the “Lowest Remaining Target %” value turned out to be 58%, the “Max RLU” value worked out at 2.18e+06 RLU, the “PBMC ADCC EC50” value came out at 0.167 ng/mL and the “Reporter cell ADCC EC50” value was ~9.74 ng/mL. Besides, in [2], the “ADCC EC50” value is ~9.74 ng/mL, the “Lowest Remaining Target %” value came to 58%, the “Max RLU” value stood at 2.18e+06 RLU and the “PBMC ADCC EC50” value came to 0.167 ng/mL. Besides, the dissociation constant (Kd) in [3] was determined as 1.17 nM. In addition, the Kd in assay [4] was 3.64 nM.

B10: 40596p2.1.A2 IgG (antibody, V domains shown)
VH: EVQLLESGGGLVQPGGSLTLSCTASGLTFSSYAMNWVRQAPGKGLEWVATISSNSGSFRSYADSVKGRFTISRDNSKSTLYLQTNSLRAEDTALYYCTKDRSITANDFTMDVWGQGTTVTVSS
VL: EIVLTQSPGTLSVSPGERATLNCRASQTVGSRLAWYQQKPGQAPRLLIYGASSRATGIPARFSGSGSGTEFTLTISSLQSEDFAVYYCQQYYDWPPLTFGGGTKVEIK
notes: IgG
Consider B10, for which the Kd came to 10.9 nM in assay [7] and 6.71 nM in assay [9].

B11: 40769p2.2.E7 (antibody, V domains shown)
VH: EVQLLESGGGLVQPGGSLRLSCTGFGFTFTDARMSWVRQAPGKGLEWVADISSYGDNTYYADSVKGRFTISRDNSANTLYVQMNSLRAEDTAVYYCAKRMEREVMTIKLDYHAMDVWGQGTTVTVSS
VL: QSVLTQTPSVSGTPGQRVTISCSGIFNIRNYVSWYQQLPGTAPKLLIFKDDQRLSGVPDRFSGSGSGTSASLAISGLQSEDEADYYCAAWDIFLNVWVFGGGTKLTVL
notes: as for B1
Regarding B11, in assay [1], the “Lowest Remaining Target %” value is 63%, the “Max RLU” value turned out to be 1.33e+06 RLU, the “PBMC ADCC EC50” value was found to be 0.0245 ng/mL and the “Reporter cell ADCC EC50” value is ~13.2 ng/mL. In [2], the “ADCC EC50” value is ~13.2 ng/mL, the “Lowest Remaining Target %” value turned out to be 63%, the “Max RLU” value was found to be 1.33e+06 RLU and the “PBMC ADCC EC50” value is 0.0245 ng/mL. This molecule also yielded a Kd in assay [3] of 0.47 nM. Moreover, binding in assay [4] was characterised by a dissociation constant (Kd) of 1.99 nM.

The values above are taken from patent US20220306762A1 (CRYSTAL BIOSCIENCE, published 2022).
